Experimental findings from patent US20100196361A1, “Method of inhibition of vascular development using an antibody” (DYAX CORP., priority 2003, published 2010) are described below.

The test concerns the target T1, Tie1-EpoR chimeric receptor (UniProt P14753+P35590).
T1 construct: PCR amplified extracellular part of human Tie1 (bp 37-2316 of X60975); expressed in transfected cells
T1 sequence (P35590+P14753 with tags, fused parts or gaps): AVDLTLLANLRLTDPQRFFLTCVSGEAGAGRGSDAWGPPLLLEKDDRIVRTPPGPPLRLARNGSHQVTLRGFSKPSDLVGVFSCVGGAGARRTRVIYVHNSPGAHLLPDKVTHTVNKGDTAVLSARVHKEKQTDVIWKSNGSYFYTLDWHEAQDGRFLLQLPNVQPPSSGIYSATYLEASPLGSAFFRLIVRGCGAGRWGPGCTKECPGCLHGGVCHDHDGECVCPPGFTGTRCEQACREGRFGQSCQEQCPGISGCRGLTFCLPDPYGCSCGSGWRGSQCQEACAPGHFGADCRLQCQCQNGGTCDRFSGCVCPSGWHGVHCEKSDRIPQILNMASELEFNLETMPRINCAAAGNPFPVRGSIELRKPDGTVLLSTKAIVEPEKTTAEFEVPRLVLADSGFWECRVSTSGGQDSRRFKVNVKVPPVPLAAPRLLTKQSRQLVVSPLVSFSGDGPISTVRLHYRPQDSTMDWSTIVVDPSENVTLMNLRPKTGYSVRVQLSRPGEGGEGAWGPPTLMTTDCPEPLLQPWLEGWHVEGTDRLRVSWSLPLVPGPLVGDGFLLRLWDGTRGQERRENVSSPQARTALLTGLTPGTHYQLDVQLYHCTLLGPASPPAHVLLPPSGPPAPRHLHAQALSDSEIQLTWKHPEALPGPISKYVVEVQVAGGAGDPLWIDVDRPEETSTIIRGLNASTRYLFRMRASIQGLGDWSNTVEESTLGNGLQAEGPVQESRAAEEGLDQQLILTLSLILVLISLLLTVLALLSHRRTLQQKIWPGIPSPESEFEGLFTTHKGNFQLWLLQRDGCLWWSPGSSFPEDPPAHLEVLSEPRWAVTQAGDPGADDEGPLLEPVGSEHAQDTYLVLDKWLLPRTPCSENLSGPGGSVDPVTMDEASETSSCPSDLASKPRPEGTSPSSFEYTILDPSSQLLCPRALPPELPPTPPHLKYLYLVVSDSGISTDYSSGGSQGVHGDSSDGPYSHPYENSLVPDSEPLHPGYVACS
Description: BaF3 bioassay (Tie1/EpoR chimeric BaF3 cell assay). The format is cell-based, human. Particulars: for survival (viability) of Tie1-EpoR BaF3 cells: no IL-3, MTT. The source says:
BaF3 bioassay. To generate Tie1-EpoR expressing BaF3 cells for the bioassay, BaF3 pre-B cells were stably transfected with a nucleic acid that expresses chimeric receptor containing the extracellular domain of human Tie1 fused with the transmembrane and cytoplasmic domains of the mouse erythropoietin receptor. The nucleic acid used was a Tie1-EpoR chimeric cDNA in a pEF-BOS expression vector. The nucleic acid encoding the chimeric receptor was constructed by cloning the PCR amplified extracellular part of human Tie1 (bp 37-2316 of X60975) as EcoRI-BglII fragment into mEpoR-pcDNA vector. The cDNA encoding for the chimeric receptor consisting of the extracellular part of Tie1 fused with the transmembrane and intracellular domains of EpoR was subcloned into the pEF-BOS expression vector. Vector was linearized and co-transfected into BaF3 cells with pcDNA3.1(+) Zeo vector (Invitrogen). Stable cell pools were generated by selection with 250 μg/ml Zeocin. The expression of Tie1/EpoR fusion protein in several clones was analyzed by Western blotting with an antibody against EpoR.
To perform the assays, BaF3 cells expressing the Tie1-EpoR chimera were split in 96-well microtiter plates at 50 000 cells/well in the presence of the indicated concentrations of anti-Tie1 antibodies. The E3 antibody used in this study was the germ-lined E3 antibody (DX-2220). As controls, Zeocin resistant pools not expressing the Tie1-EpoR were used. After 48 h, the viability of the cells was determined by adding MTT (3-(4,5-dimethylthiazol-2-yl)-2,5-diphenyl tetrazolium bromide (Sigma), 0.5 mg/ml), followed by further 2 h of culture, addition of an equal volume of cell lysis solution (10% SDS, 10 mM HCl) and incubation overnight at 37° C. Absorbance was measured at 540 nm.
Stimulation and inhibition of Tie1 in Tie1-EpoR transfected BaF3 cells and human primary endothelial cells. Although no ligand for Tie1 has been identified, we used the following efficient screening method for Tie1-binding proteins. Interleukin-3 dependent pre-B-lymphocyte (BaF3) cells were transfected with a construct that expresses a Tie1-EpoR fusion protein. Since BaF3 cells are IL-3 dependent, they die unless IL-3 is provided. However, Tie-EpoR receptor expressing BaF3 cells can survive and proliferate if the medium contains a Tie1-binding protein, either a natural ligand or an artificial mimetic. Cell survival can be quantitated, e.g., by colorimetric MTT-assay, which measures mitochondrial activity.
To determine if any of the other monoclonal antibodies tested inhibit the survival effect of E3 IgG in Tie1-EpoR BaF3 assay, antibodies were studied in combination with E3 IgG. A concentration of 100 ng/ml of E3 IgG together with 100 (1:1) or 500 (1:5) ng/ml of the other antibodies were used and the viability of Tie1-EpoR cells was measured.

B1: E3: human anti-Tie1 antibody from phage Fab library, reformatted as IgG; HC variable SEQ ID NO:114, LC variable SEQ ID NO:116 (antibody, V domains shown)
VH: EVQLLESGGGLVQPGGSLRLSCAASGFTFSMYGMVWVRQAPGKGLEWVSVISPSGGNTGYADSVKGRFTISRDNSKNTLYLQVNSLRAEDTAVYYCARAPRGYSYGYYYWGQGTLVTVSSASTKGPSVFPLAPSSKSTSGG
VL: DIQMTQSPLSLSASVGDRVTITCRASQGIGHYLAWYQQKPGKVPKLLIYTASTLQSGVPSRFSGSGSGTDFTLTINSLQPEDVATYYCQQFNSYPHTFGQGTRLDIK
modifications: IgG constant regions; Synthetically generated peptide
Take B1: the “survival (viability) of Tie1-EpoR BaF3 cells” value (“survival (viability)” for short) is “functions as a Tie1 activating antibody in the BaF3 cell bioassay”. Besides, the “viability of EpoR BaF3 cells used as a control” value (cells not expressing Tie1-EpoR) is “not affected”. In addition, under “listed as E3 IgG”, the “survival (viability)” value is recorded as “able to promote survival of Tie1-EpoR cells”. Besides, under “viability dose dependent”, the “concentration giving almost maximal viability in Tie1-EpoR cell survival assays” value was found to be 50 ng/mL.

B2: parental E3 Fab: soluble Fab fragment of the parental E3 anti-Tie1 antibody (antibody, V domains shown)
VH: B1 VH
VL: B1 VL
B2: the “survival (viability)” value was “no effect on the viability of Tie1-EpoR cells”.
